{
  "source": "patent US20100285988A1",
  "about": "(Memorial Sloan Kettering, published 2010)",
  "key": {"PEN-2": {"target": "T1, PEN-2 (human, UniProt Q9NZ42 1-101)", "T1 construct": "Subunit of the γ-secretase complex in HeLa membrane", "assay": "photoaffinity labeling of HeLa membrane, streptavidin capture, western blot", "source_text": "(§1) After the photolyzed membranes were solubilized, biotinylated proteins were captured, eluted and analyzed by western blotting with antibodies against biotin, PS1, nicastrin, PEN-2 and APH-1."}, "APH-1a": {"target": "T2, APH-1a (human, UniProt Q96BI3 1-265, limits assumed)", "T2 construct": "Subunit of the γ-secretase complex in HeLa membrane", "assay": "photoaffinity labeling of HeLa membrane, streptavidin capture, western blot", "source_text": "as §1"}},
  "note": "Where no end group is shown, it is not given here. [ ]: non-standard residue; d: D form. Bpa = N[C@@H](Cc1ccc(C(=O)c2ccccc2)cc1)C(=O)O",
  "data": [
    {"binder": "LVF[Bpa]AED-biotin (used at 300 nM; also called biotinylated photoreactive peptide Aβ17-23; photoactive peptide)", "note": "[Aβ17-23BPA^20-biotin]", "values": [
      {"measurement": "binding result", "setting": "PEN-2", "result": "no binding (tested: 300 nM)"},
      {"measurement": "binding result", "setting": "APH-1a", "result": "no binding (tested: 300 nM)"}
    ]}
  ]
}
